From paper PMC6900284 come the findings set out here.

This data set concerns the target CPSF160;WDR33;CPSF30;Fip1 (human;human;human;human, UniProt Q10570;Q9C0J8;O95639-3;Q6UN15-4 1-1443;1-410;1-178;130-195, |||). Description: cryo-EM structure.

Chain of CPSF160;WDR33;CPSF30;Fip1 (Q10570 whole entry, chain 1 of 4): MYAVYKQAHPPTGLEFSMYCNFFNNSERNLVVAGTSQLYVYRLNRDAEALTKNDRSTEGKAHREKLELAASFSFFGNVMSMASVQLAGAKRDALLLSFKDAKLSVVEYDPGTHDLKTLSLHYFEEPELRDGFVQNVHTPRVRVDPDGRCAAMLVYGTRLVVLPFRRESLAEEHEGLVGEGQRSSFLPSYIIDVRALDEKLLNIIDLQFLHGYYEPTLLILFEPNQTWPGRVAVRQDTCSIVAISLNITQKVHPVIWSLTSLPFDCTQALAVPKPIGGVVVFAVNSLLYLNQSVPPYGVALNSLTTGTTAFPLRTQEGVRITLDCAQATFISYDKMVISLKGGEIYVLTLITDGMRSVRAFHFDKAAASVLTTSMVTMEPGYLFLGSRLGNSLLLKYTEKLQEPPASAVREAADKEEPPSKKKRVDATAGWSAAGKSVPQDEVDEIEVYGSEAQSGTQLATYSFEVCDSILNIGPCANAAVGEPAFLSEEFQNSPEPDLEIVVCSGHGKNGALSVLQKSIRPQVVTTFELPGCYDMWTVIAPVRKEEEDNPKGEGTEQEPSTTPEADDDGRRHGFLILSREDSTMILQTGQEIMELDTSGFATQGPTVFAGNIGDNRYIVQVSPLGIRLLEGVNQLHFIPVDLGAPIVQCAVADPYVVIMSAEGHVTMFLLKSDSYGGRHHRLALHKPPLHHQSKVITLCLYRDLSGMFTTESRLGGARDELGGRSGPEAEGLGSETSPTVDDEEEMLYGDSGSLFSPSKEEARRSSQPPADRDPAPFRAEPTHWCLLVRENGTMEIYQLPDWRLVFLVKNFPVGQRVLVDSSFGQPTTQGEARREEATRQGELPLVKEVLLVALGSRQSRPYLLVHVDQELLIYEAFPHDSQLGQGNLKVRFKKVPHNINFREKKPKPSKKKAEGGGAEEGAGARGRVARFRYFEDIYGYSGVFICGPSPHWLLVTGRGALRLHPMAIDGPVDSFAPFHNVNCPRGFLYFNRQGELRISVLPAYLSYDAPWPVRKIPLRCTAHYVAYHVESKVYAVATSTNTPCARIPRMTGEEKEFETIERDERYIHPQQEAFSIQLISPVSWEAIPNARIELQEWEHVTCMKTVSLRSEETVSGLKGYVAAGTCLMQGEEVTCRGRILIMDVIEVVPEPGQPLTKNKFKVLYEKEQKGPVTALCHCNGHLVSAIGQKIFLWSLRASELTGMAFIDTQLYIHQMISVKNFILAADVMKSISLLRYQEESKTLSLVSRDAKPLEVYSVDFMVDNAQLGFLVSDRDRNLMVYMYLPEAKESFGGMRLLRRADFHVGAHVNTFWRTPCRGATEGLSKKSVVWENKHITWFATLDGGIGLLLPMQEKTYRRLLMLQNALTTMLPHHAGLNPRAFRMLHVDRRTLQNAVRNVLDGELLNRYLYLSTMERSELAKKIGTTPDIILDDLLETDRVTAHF
Chain of CPSF160;WDR33;CPSF30;Fip1 (Q9C0J8 1-410, chain 2 of 4): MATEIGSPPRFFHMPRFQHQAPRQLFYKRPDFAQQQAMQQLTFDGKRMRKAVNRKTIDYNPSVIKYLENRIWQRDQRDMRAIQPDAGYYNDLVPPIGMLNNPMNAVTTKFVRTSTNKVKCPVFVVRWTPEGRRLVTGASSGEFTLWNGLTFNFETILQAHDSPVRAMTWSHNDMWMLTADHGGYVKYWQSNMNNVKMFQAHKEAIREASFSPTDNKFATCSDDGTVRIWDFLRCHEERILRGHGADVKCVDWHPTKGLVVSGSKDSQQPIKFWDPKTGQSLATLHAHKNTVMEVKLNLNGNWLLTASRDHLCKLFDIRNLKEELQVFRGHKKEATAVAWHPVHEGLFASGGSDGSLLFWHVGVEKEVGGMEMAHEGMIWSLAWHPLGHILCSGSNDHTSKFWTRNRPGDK
Chain of CPSF160;WDR33;CPSF30;Fip1 (O95639 1-178, chain 3 of 4): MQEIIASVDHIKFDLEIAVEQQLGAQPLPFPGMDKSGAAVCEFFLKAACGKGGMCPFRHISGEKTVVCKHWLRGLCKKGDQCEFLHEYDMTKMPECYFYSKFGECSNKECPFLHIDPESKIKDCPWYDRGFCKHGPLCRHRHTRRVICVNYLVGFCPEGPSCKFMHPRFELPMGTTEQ
Chain of CPSF160;WDR33;CPSF30;Fip1 (Q6UN15 145-210, chain 4 of 4): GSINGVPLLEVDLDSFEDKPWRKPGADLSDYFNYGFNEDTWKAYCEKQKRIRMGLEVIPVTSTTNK

Turning to ACAAUAAAGG (ssRNA) [10-mer PAS RNA], the binding result was “binds”.
